Data reported in patent US20260258143A1 (published 2026).
Where two headings read alike, the source gives them in different places. Blank lines part the entries; values can stand above or below the binder they belong to.

How the values were obtained:
Experiment in all cases: SPR
[1] = target: T1, human CD25-extracellular domain (CD25-ECD) (UniProt P01589 22-240)
T1 chain: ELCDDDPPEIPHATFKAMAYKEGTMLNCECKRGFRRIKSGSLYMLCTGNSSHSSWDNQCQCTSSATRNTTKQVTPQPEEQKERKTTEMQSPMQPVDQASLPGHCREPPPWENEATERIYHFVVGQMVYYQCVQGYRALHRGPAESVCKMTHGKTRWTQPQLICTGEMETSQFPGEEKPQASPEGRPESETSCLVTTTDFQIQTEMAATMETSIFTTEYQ

[2] = target: cynomolgus CD25
[3] = target: T1, human CD25-extracellular domain …
[4] = target: cynomolgus CD25; remark: listed apart in the source
[5] = target: T1, human CD25-extracellular domain …
[6] = target: cynomolgus CD25; remark: listed apart in the source
[7] = target: T1, human CD25-extracellular domain …
[8] = target: T1, human CD25-extracellular domain …
[9] = target: 83B05Hu1_A
[10] = target: T1, human CD25-extracellular domain …
[11] = target: T1, human CD25-extracellular domain …
[12] = target: T1, human CD25-extracellular domain …
[13] = target: cCD25
[14] = target: cynomolgus CD25; remark: listed apart in the source
[15] = target: T1, human CD25-extracellular domain …
[16] = target: T1, human CD25-extracellular domain …
[17] = target: cynomolgus CD25; remark: listed apart in the source

Kd [1]: 21 nM | Kd [2]: 112 nM
B1: ODY-83B03Hu1 (VHH)
VHH: EVQLVESGGGLVQPGGSLRLSCAASGMPLVAMGWYRQAPGKQRELVASISSGGNTGYADSVKGRFTISRDNAKKTVYLQMNSVRPEDTGVYYCNIYRSQVPPTRYSWGQGTQVTVSS

Kd [3]: 35 nM | Kd [4]: 97 nM
B2: ODY-83B05Hu1 (VHH)
VHH: EVQLLESGGGLVQPGGSLRLSCAASGFTLDYYAIGWFRQAPGKEREGVLSISSTDGRTYYADSVKGRFTISRDNPKNTVYLQLNSLRPEDTAVYYCAAKRLGPMVHRYSLEVLTPLFLDEYDYWGQGTQVTVSS

Kd [5]: 58 nM | Kd [6]: 97 nM
B3: ODY-83F07Hu1 (VHH)
VHH: EVQLLESGGGLVQPGGSLRLSCAASGFTLDYYAIGWFRQAPGKEREGVLSISSTDGRTYYADSVKGRFTISRDNPKNTVYLQLNSLRPEDTAVYYCAAKRLGPMVHQYSLEVLTPLFLDEYDYWGQGTQVTVSS

Kd [7]: 97 nM
B4: 83F07Hu1_L (antibody, V domains shown)
VH: EVQLLESGGGLVQPGGSLRLSCAASGFTLDYYAIGWFRQAPGKEREGVLSISSTDGRTYYADSVKGRFTISRDNPKNTVYLQLNSLRPEDTAVYYCAAKRLGPLVHQYSLEVLTPLFLDEYDYWGQGTQVTVSS

Kd [8]: 61 nM
B5: 83B05Hu1_L (antibody, V domains shown)
VH: EVQLLESGGGLVQPGGSLRLSCAASGFTLDYYAIGWFRQAPGKEREGVLSISSTDGRTYYADSVKGRFTISRDNPKNTVYLQLNSLRPEDTAVYYCAAKRLGPLVHRYSLEVLTPLFLDEYDYWGQGTQVTVSS

Kd [9]: 76 nM
B6: human CD25 (receptor)
chain: ELCDDDPPEIPHATFKAMAYKEGTMLNCECKRGFRRIKSGSLYMLCTGNSSHSSWDNQCQCTSSATRNTTKQVTPQPEEQKERKTTEMQSPMQPVDQASLPGHCREPPPWENEATERIYHFVVGQMVYYQCVQGYRALHRGPAESVCKMTHGKTRWTQPQLICTGEMETSQFPGEEKPQASPEGRPESETSCLVTTTDFQIQTEMAATMETSIFTTEYQ

Kd [10]: 17 nM
B7: ODY-N2002Hu1 (antibody, V domains shown)
VH: EVQLVESGGGLVQPGGSLRLSCAVSGRSFSTLIMAWYRQAPGKQRELVATIDRGGTTTYADSVKGRFTISRDNAKNTVYLQMNSLRPEDTAVYYCKTLRYWGQGTQVTVSS

Kd [11]: 1.6 nM | Kd [12]: 1.6 nM
B8: humanized anti-CD25 V-body 47D3 (VHH)
VHH: EVQLLESGGGLVQPGGSLRVSCAASGRTFSWNGMGWFRQAPGKEREFVAAISQSGGRTRYADSVKGRFTISRDNAKNTVYLQMNSLRPEDTAVYYCAASDFLLATTISAYDYWGQGTQVTVSS

Kd [13]: 49 nM | Kd [14]: 49 nM
B9: 47D3 (VHH)
VHH: EVQLLESGGGLVQPGGSLRVSCAASGRTFSWNGMGWFRQAPGKEREFVAAISQSGGRTRYADSVKGRFTISRDNAKNTVYLQMNSLRPEDTAVYYCAASDFLLATTISAYDYWGQGTQVTVSS

Kd [11]: 49 nM | Kd [15]: 49 nM
B10: humanized anti-CD25 V-body 46A3 (VHH)
VHH: EVQLLESGGGLAQPGGSLRLSCAASGFTFSNYAMSWARQAPGKGLEWVSGIYSDGSGTYYADSVKGRFTISRDNAKNTVYLQMNSLRPEDTAVYYCAKGRNSGSYYPWDDYWGQGTQVTVSS

Kd [16]: 50 nM
B11: ODY-N1813Hu1 (antibody, V domains shown)
VH: EVQLLESGGGLAQPGGSLRLSCAASGFTFSNYAMSWARQAPGKGLEWVSGIYSDSSGTYYADSVKGRFTISRDNAKNTVYLQMNSLRPEDTAVYYCAKGRGSGSYYPFEDYWGQGTQVTVSS

Kd [17]: 34 nM
B12: ODY-46A3 (VHH)
VHH: EVQLLESGGGLAQPGGSLRLSCAASGFTFSNYAMSWARQAPGKGLEWVSGIYSDGSGTYYADSVKGRFTISRDNAKNTVYLQMNSLRPEDTAVYYCAKGRNSGSYYPWDDYWGQGTQVTVSS
